Experimental data from patent publication US20210371499A1 (University of California, published 2021).

Biological target: l[…]/HLA-A*02:01 (l = D-leucine) (human)
Experiment: SEC TAPBPR binding assay

B1: TAPasin Binding Protein Related (TAPBPR), luminal domain, His6-tagged (other)
chain: KPHPAEGQWRAVDVVLDCFLAKDGAHRGALASSEDRARASLVLKQVPVLDDGSLEDFTDFQGGTLAQDDPPIIFEASVDLVQIPQAEALLHADCSGKEVTCEISRYFLQMTETTVKTAAWFMANMQVSGGGPSISLVMKTPRVTKNEALWHPTLNLPLSPQGTVRTAVEFQVMTQTQSLSFLLGSSASLDCGFSMAPGLDLISVEWRLQHKGRGQLVYSWTAGQGQAVRKGATLEPAQLGMARDASLTLPGLTIQDEGTYICQITTSLYRAQQIIQLNIQASPKVRLSLANEALLPTLICDIAGYYPLDVVVTWTREELGGSPAQVSGASFSSLRQSVAGTYSISSSLTAEPGSAGATYTCQVTHISLEEPLGASTQVVPPERR
notes: domain: luminal domain; Molecular chaperone; also called TAPBR; HIS-Tagged TAPBPR; not shown: His6 tag
binding result: no binding
